For series [1], the system named is H. pylori (strain AH244). Type of series: in vivo. The note with it: BALB/c mice infected with strain AH244, 100 μg antigen + 10 μg CT orally, compared to control; FIGS. 3 and 4.
Series [2] addresses T1, H. pylori peptidyl-propyl cis-trans isomerase (PPIase) (Helicobacter pylori, UniProt Q9ZJH5).
T1 construct: His-Tag (N); made in house; host or cells: E. coli BL21(DE3)
T1 sequence (Q9ZJH5 whole entry, looked up): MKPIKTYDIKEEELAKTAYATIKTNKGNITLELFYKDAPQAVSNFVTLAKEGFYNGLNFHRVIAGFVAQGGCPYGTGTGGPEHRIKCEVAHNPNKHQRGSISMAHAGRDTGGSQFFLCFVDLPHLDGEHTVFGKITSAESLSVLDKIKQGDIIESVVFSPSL
Briefly: PPIase enzymatic assay, α-chymotrypsin coupled, succinyl-Ala-Ala-Pro-Phe-p-nitroanilide. Type of series: biochemical. The source says:
The assay is essentially as described by Fisher (Fischer, G., et. al. (1984) Biomed. Biochim. Acta 43:1101-1111). The assay measures the cis-trans isomerization of the Ala-Pro bond in the test peptide N-succinyl-Ala-Ala-Pro-Phe-p-nitroanilide (Sigma # S-7388, lot # 84H5805). The assay is coupled with α-chymotrypsin, where the ability of the protease to cleave the test peptide occurs only when the Ala-Pro bond is in trans. The conversion of the test peptide to the trans isomer in the assay is followed at 390 nm on a Beckman Model DU-650 spectophotometer. The data are collected every second with an average scanning of time of 0.5 second. Assays are carried out in 35 mM Hepes, pH 8.0, in a final volume of 400 ul, with 10 μM α-chymotrypsin (type 1-5 from bovine Pancreas, Sigma # C-7762, lot 23H7020) and 10 nM PPIase. To initiate the reaction, 10 μl of the substrate (2 mM N-Succinyl-Ala-Ala-Pro-Phe-p-nitroanilide in DMSO) is added to 390 μl of reaction mixture at room temperature.
The PPIase activity was assayed using the chromogenic tetrapeptide substrate succinyl-Ala-Ala-Pro-Phe-p-nitroanilide. An initial velocity of 4.9 μmole/min/mg protein was measured with the purified enzyme (FIG. 5). This corresponds to a kcat of 1.6 sec^−1 which is similar to the one obtained for the E. coli PPIase (Liu, J. and Walsh, C. T. (1990) Proc. Natl. Acad. Sci. USA 87:4028-4032) and the one from porcine kidney (Fischer, G. (1989) Nature 337:476-478).
The recombinant protein has a high catalytic efficiency of 2.06×10^9 M^−1 s^−1 when the assay is measured at 25° C. These values are one to two orders of magnitude higher than that observed for other characterized PPIases. However, in those studies, the ppiase assay was conducted at 10° C., which may account for the discrepency.

The test system of series [3] is H. pylori. In words: Protective oral immunization and challenge with live H. pylori, quantitative urease assay and bacterial colony counts of gastric tissue. Type of series: in vivo, C57BL/6 mice. How it is done: A murine model of H. pylori infection was produced by infection of C57BL/6 mice with H. pylori Sydney strain SS1 and was used to assess the efficacy of recombinant H. pylori vac36. […] Dose-response studies have shown 100% infection rates of inbred C57BL/6 and Balb/C mice at 8 weeks post-challenge with a single inoculation of […] organisms.
The presence of H. pyloriorganisms in gastric tissue was determined by culture of gastric tissue and by a quantitative urease assay. In the latter method, a longitudinal segment of antrum, representing approximately ¼ of the total antral region was placed in 1 ml of urea broth. After 4 hr, the extent of color change resulting from urea hydrolysis and increased pH was quantiated by spectrophotometric measurement of A550 (Fox et al., Immunol. 88:400-406, 1996). The assay sensitivity is ˜10^3 H. pylori organisms. A positive (H. pylori-infected) gastric tissue was defined as that sample showing 2 standard deviations above the mean A550 value derived from a group of unchallenged uninfected age-matched control mice.
(§1) Protective activity of purified recombinant H. pylori vac36 (SEQ ID NO: 5146) antigen The ability of purified recombinant vac36 (SEQ ID NO: 5146) antigen derived from H. pylori to interfere with the establishment of an H. pylori infection was examined in mice. […]. The mice were challenged 2 weeks later on 3 consecutive days by oral administration of 10^8 H. pylori organisms. The experiment was terminated 2 weeks post-challenge, and the H. pylori infection level assessed by bacterial colony counts and by quantitative urease assays.

Series [4] relates to CD4+ or CD8+ T cells and IgA containing (IgACC) plasma cells in gastric tissue. In words: Local gastric immune response to immunization, immunostaining of gastric cryosections. Type of series: in vivo, C57BL/6 mice.
Excerpt: Longitudinal sections of gastric tissues from the esophageal to the duodenal junction were embedded in OCT embedding compound, frozen in liquid nitrogen, and cryosections immunostained with monoclonal antibodies recognizing CD4^+ or CD8^+T cells or with antisera against mouse IgA for identification of IgA containing (IgACC) plasma cells (Pappo et al., Infect. Immun. 63:1246-1252, 1995). The degree of local gastric immune response was expressed quantitatively as the number of CD4^+, CD8^+ or IgACC cells per mm^2 of gastric region examined.
as §1

Where [5] appears, read: mean number of cells/mm^2 of gastric region ± SEM, immunized mice upon challenge with H. pylori.

The text below walks through data of US20040052799A1, “Nucleic acid and amino acid sequences relating to Helicobacter pylori for diagnostics and therapeutics” (Astra Aktiebolag, priority 1996, published 2004).

Marks after values point to notes of the source that are not given here.

B1: SEQ ID NO: 677: H. pylori antigen of the therapeutic immunization study; number does not match the antigen list of Tables 6 and 7 (protein, listed as Helicobacter pylori)
chain: SDCMALLEIIHYPSKILRTISKEVVSFDSKLHQQLDDMHETMIASEGIGLAAIQVGLPLRMLIINLPQEDGVQHKEDCLEIINPKWIETKGSIMYREGCLSVPGFYEEVERFEKVKIEYQNRFAEVKILEASELLAVAIQHEIDHLNGVLFVDKLSILKRKKFEKELKELQKKQKHK
modifications: double-stranded, circular; misc_feature (B) LOCATION 1...531; hypothetical: NO; anti-sense: NO
Regarding B1, in series [1], the “reduction and/or eradication of the H. pylori infection (therapeutic immunization effect)” value is on record as “did not differ from control”.

B2: SEQ ID NO: 465: H. pylori antigen of the therapeutic immunization study; number does not match the antigen list of Tables 6 and 7 (protein, listed as Helicobacter pylori)
chain: MGCSFIFKKVRVYSKMLVALGLSSVLIGCAMNPSAETKKPNDAKNQQPVQTHERMTTSSEHVTPLDFNYPVHIVQAPQNHHVVGILMPRIQVSDNLKPYIDKFQDALINQIQTIFEKRGYQVLRFQDEKALNVQDKKKIFSVLDLKGWVGILEDLKMNLKDSHSPI
modifications: double-stranded, circular; misc_feature (B) LOCATION 1...498; hypothetical: NO; anti-sense: NO
On to B2, for which, in series [1], the “reduction and/or eradication of the H. pylori infection (therapeutic immunization effect)” value is “did not differ from control”.

B3: H. pylori PPIase: recombinant PPI from H. pylori expressed in E. coli using pET-28b (protein)
chain: FIAIIEHLNDKSLSQRFMMKPIKTYDIKEEELAKTAYATIKTNKGNITLELFYKDAPQAVSNFVTLAKEGFYNGLNFHRVIAGFVAQGGCPYGTGTGGPEHRIKCEVAHNPNKHQRGSISMAHAGRDTGGSQFFLCFVDLPHLDGEHTVFGKITSAESLSVLDKIKQGDIIESVVFSPSL
modifications: left off: small tags and cut ends
notes: recombinant PPI from H. pylori expressed in E. coli using pET-28b
Turning to B3, the catalytic efficiency in series [2] (assay measured at 25° C.) came to 2.06e+09 M⁻¹ s⁻¹. Also, the kcat (usually the maximal rate divided by the concentration of active sites) in series [2] (purified recombinant enzyme) stood at 1.6 s⁻¹. Moreover, the initial velocity in series [2] (purified recombinant enzyme, substrate succinyl-Ala-Ala-Pro-Phe-p-nitroanilide) worked out at 4.9 μmole/min/mg protein.

B4: vac36: recombinant H. pylori outer membrane protein with terminal phenylalanine residue and C-terminal tyrosine cluster, aa SEQ ID NO: 5146, nt SEQ ID NO: 384 (protein, listed as Helicobacter pylori)
chain: MKQNLKPFKMIKENLMTQSQKVRFLAPLSLALSLSFNPVGAEEDGGFMTFGYELGQVVQQVKNPGKIKAEELAGLLNSTTTNNTNINIAGTGGNVAGTLGNLFMNQLGNLIDLYPTLKTNNLHQCGSTNSGNGATAAAATNNSPCFQGNLALYNEMVDSIKTLSQNISKNIFQGDNNTTSANLSNQLSELNTASVYLTYMNSFLNANNQAGGIFQNNTNQAYENGVTAQQIAYVLKQASITMGPSGDSGAAGAFLDAALAQHVFNSANAGNDLSAKEFTSLVQNIVNNSQNALTLANNANISNSTGYQVSYGGNIDQARSTQLLNNTTNTLAKVTALNNELKANPWLGNFAAGNSSQVNAFNGFITKIGYKQFFGENKNVGLRYYGFFSYNGAGVGNGPTYNQVNLLTYGVGTDVLYNVFSRSFGSRSLNAGFFGGIQLAGDTYISTLRNSPQLASRPTATKFQFLFDVGLRMNFGILKKDLKSHNQHSIEIGVQIPTIYNTYYKAGGAEVKYFRPYSVYWVYGYAF
modifications: misc_feature (B) LOCATION 1...527; hypothetical: YES
For B4, the “level of colonization by H. pylori, as assessed by gastric urease activity and bacterial count assays” value in series [3] (C57BL/6 mice immunized orally, challenged with live H. pylori) is given as “significantly lower level of colonization”. Besides, the H. pylori burden in series [3] (bacterial counts in gastric tissue, mean ± SEM, oral immunization 4 times weekly with 10 μg CT, challenge with 10^8 H. pylori, 2 weeks post-challenge) is 55,800 ± 12,599 colony forming units. The “Urease Activity” value in series [3] (mean A550 ± SEM of duplicate antral samples, n = 10 mice/group, oral immunization 4 times weekly with 10 μg CT, challenge with 10^8 H. pylori, 2 weeks post-challenge) is listed as 0.199 ± 0.080 A550. Besides, in series [4] (compared with unimmunized H. pylori-infected mice), the “numbers of CD4+ T cells and of IgACC recruited in the gastric tissues” value is recorded as “Greater numbers”. Further, in series [4] (setting [5]), the “CD4+ antrum” value worked out at 31 ± 8 cells/mm^2, the “CD4+ cardia” value is reported as 33 ± 9^a cells/mm^2, the “CD4+ corpus” value worked out at 54 ± 8 cells/mm^2 and the “CD8+ antrum” value was found to be 1 ± 1 cells/mm^2. For the same molecule, in series [4] (setting [5]), the “CD8+ cardia” value was determined as 3 ± 2 cells/mm^2, the “CD8+ corpus” value was determined as 0 cells/mm^2, the IgACC antrum was 67 ± 13 cells/mm^2 and the IgACC cardia is listed as 24 ± 12 cells/mm^2. In series [4] (setting [5]), this molecule showed an IgACC corpus of 79 ± 16 cells/mm^2.

B5: SEQ ID NO: 880: H. pylori antigen of the therapeutic immunization study; number does not match the antigen list of Tables 6 and 7 (protein, listed as Helicobacter pylori)
chain: YPCHKRFSLTHSQKESPQSNSPKGVKITLILVRKFKTPSINTLSNKIAIIITCCFLSESVKLLGYSGLKNFRILRMLETSSHFLKSFRLKRYIGFLLISLALLITPFVRIDGAHLFLISFEHKQLHFLGKNL
modifications: double-stranded, circular; misc_feature (B) LOCATION 1...396; hypothetical: NO; anti-sense: NO
Take B5: in series [1], the “degree of colonization of the antrum” value is given as “lower”.
